Measured values from paper PMC4300268.

Target: Plu4264 from Photorhabdus luminescens subsp. laumondii TTO1 (Photorhabdus luminescens subsp. laumondii TTO1)
Experiment: crystal structure

Plu4264 from Photorhabdus luminescens subsp. laumondii TTO1 (natural protein)
stoichiometry N: 2
